{
  "source": "paper PMC9443353",
  "binders": {"B1": {"name": "ZIKV60 (digoxigenin-labeled) (ssDNA)", "DNA": "CTTCTGCCCGCCTCCTTCCGGGCCCCGGGGGGTGTCCAGGCCCATGCGTCGTCCGCGGGGAGACGAGATAGGCGGACACT"}, "B2": {"name": "ZIKV60 (pyrene-modified) (ssDNA)", "DNA": "CTTCTGCCCGCCTCCTTCCGGGCCCCGGGGGGTGTCCAGGCCCATGCGTCGTCCGCGGGGAGACGAGATAGGCGGACACT", "modifications": "pyrene"}, "B3": {"name": "ZIKV60 (ssDNA)", "DNA": "CTTCTGCCCGCCTCCTTCCGGGCCCCGGGGGGTGTCCAGGCCCATGCGTCGTCCGCGGGGAGACGAGATAGGCGGACACT"}},
  "key": {"[1]": {"molecular_target": "T1, ZIKV NS1 (Zika virus, UniProt A0A024B7W1 795-1146)", "experiment": "ELONA; protein on Cu2+-coated plate; Hill slope fit; ELONA: borate buffer (60 mM in selection), 37 °C, 30 min, pH not stated; specificity: selection buffer, filtration, qPCR; FET: human serum as gate electrolyte", "settings": "chain copies: 2; label: digoxigenin"}, "[2]": {"molecular_target": "T1, ZIKV NS1", "experiment": "graphene FET; human serum; Hill n = 0.8 ± 0.2; sequential NS1 addition; ELONA: borate buffer (60 mM in selection), 37 °C, 30 min, pH not stated; specificity: selection buffer, filtration, qPCR; FET: human serum as gate electrolyte", "settings": "chain copies: 2"}, "[3]": {"molecular_target": "YFV NS1 (Yellow fever virus, UniProt P03314 779-1130)"}, "[4]": {"molecular_target": "DENV1 NS1 (Dengue virus serotype 1, UniProt P17763 776-1127)", "experiment": "filter binding with qPCR; 100 nM aptamer, 40 pmol protein; ELONA: borate buffer (60 mM in selection), 37 °C, 30 min, pH not stated; specificity: selection buffer, filtration, qPCR; FET: human serum as gate electrolyte", "settings": "chain copies: 2"}, "[5]": {"molecular_target": "DENV3 NS1 (Dengue virus serotype 3, UniProt Q6YMS4 774-1125)", "experiment": "filter binding with qPCR; 100 nM aptamer, 40 pmol protein; ELONA: borate buffer (60 mM in selection), 37 °C, 30 min, pH not stated; specificity: selection buffer, filtration, qPCR; FET: human serum as gate electrolyte"}},
  "data": [
    {"binder": "B1", "values": [
      {"measurement": "Kd", "setting": "[1]", "result": "2.28 ± 0.28", "unit": "nM"}
    ]},
    {"binder": "B2", "values": [
      {"measurement": "apparent K (half saturation)", "setting": "[2]", "result": "1.4 ± 0.3", "unit": "pg/mL"}
    ]},
    {"binder": "B3", "values": [
      {"measurement": "binding signal", "setting": "[3]", "result": "14.2 ratio ZIKV NS1/YFV NS1 bound"},
      {"measurement": "binding signal", "setting": "[4]", "result": "14.2 ratio ZIKV NS1/DENV1 NS1 bound"},
      {"measurement": "binding signal", "setting": "[5]", "result": "13.4 ratio ZIKV NS1/DENV3 NS1 bound"}
    ]}
  ]
}
